Measured values: patent publication US20210171630A1 (MacroGenics, published 2021)

Columns and labels:
[1] = molecular target: T1, Human CD16A V158F, His tagged (R&D Systems) (human, UniProt P08637 17-208); experiment: SPR (ProteOn); CD16-His immobilized via anti-PentaHis, diabody passed over
T1 construct: Bought (R&D Systems); also called CD16-His tagged molecules; not shown: His tag
Procedure: (§1) A ProteOn analysis was conducted to assess the binding of the CD16 Binding Domains of the constructed diabodies to CD16-His tagged molecules (R&D Systems) that had been immobilized on a chip. The CD16 molecules were immobilized via an anti-PentaHis antibody, followed by incubation incubation with the diabodies.

[2] = molecular target: T2, Human CD16A 158V, His tagged (R&D Systems) (human, UniProt P08637 17-208); experiment: as above
T2 construct: Bought (R&D Systems); also called CD16-His tagged molecules; not shown: His tag
Procedure: as §1

[3] = molecular target: T3, Human CD16B, His tagged (R&D Systems) (human, UniProt O75015 17-200); experiment: as above
T3 construct: Bought (R&D Systems); also called CD16-His tagged molecules; not shown: His tag
Procedure: as §1

[4] = molecular target: T4, Human CD16A 158F (labeled with Avitag) (human, UniProt P08637 17-208); experiment: SPR (BIACORE); diabody captured on goat F(ab')2 anti-human Fc, CD16A-Avitag passed over; 1:1 fit
T4 construct: also called human CD16A V/F molecules; not shown: Avitag

[5] = molecular target: T5, Human CD16A 158V (labeled with Avitag) (human, UniProt P08637 17-208); experiment: as above
T5 construct: also called human CD16A V/F molecules; CD16 158V allotype; not shown: Avitag

[6] = molecular target: T6, human CD16A on the surface of NK cells (human, UniProt P08637 17-254); experiment: flow cytometry, whole blood of donor D48353, gated lymphocyte population: αhFc APC (% positive)
T6 construct: whole, on cells; also called CD16A-expressing cells of the gated lymphocyte population; human CD16 on NK cells

[7] = molecular target: T6, human CD16A on the surface of NK cells; experiment: flow cytometry, whole blood of donor D59780, NK cells: CD56 APC / αhFc PE double-positive cells (%)
Procedure: Following incubation, the cells were labled with: anti-CD56-allophycocyanin (CD56 APC, NK cell marker), anti-CD66b-fluorescein isothiocyanate (CD66b FITC, neutrophil cell marker) and anti-CD3-peridinin chlorophyll protein-Cy5.5 (CD3 PerCP Cy5.5, T-cell marker), and anti-humanFc-Phycoerythrin (αhFc PE) to detect diabody binding and the cell surface. The labeled cells were analyzed by flow cytometry gated on NK cells.

[8] = molecular target: T7, human CD16B of neutrophils (human, UniProt O75015 17-200); experiment: flow cytometry, whole blood of donor D59780, neutrophils: CD66b FITC / αhFc PE double-positive cells (%)
T7 construct: whole, on cells; also called CD16B-expressing cells of the gated granulocyte population

[9] = molecular target: T7, human CD16B of neutrophils; experiment: flow cytometry, whole blood of donor D48353, gated granulocyte population (CD66b PerCP Cy5.5): αhFc APC (% positive)

T1 sequence (P08637 17-208 limits assumed, stated change not applied): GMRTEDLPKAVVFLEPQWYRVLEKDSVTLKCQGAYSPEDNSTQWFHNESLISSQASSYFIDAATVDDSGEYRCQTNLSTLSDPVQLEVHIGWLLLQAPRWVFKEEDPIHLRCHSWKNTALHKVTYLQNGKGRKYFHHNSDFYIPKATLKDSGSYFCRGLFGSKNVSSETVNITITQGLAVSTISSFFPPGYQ
T3 sequence (O75015 17-200 limits assumed): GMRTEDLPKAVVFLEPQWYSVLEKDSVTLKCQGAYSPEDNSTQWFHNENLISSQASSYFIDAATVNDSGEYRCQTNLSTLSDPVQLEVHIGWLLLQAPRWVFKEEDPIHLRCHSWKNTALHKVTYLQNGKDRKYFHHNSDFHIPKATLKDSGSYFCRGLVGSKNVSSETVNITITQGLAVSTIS
T2 sequence (P08637 17-208 F176V limits assumed): as the sequence (P08637 17-208 limits assumed, stated change not applied) above, with F160V counted along it
T6 sequence (P08637 17-254): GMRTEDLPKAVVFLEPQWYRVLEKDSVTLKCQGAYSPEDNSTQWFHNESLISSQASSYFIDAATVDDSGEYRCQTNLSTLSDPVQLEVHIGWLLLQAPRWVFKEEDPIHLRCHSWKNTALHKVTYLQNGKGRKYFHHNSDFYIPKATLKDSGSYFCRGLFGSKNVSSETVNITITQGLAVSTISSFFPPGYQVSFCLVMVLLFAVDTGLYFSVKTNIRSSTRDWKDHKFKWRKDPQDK
T4 sequence (P08637 17-208 limits assumed): as the sequence (P08637 17-208 limits assumed, stated change not applied) above
T7 sequence (O75015 17-200): as the sequence (O75015 17-200 limits assumed) above
T5 sequence (P08637 17-208 F176V limits assumed): as the sequence (P08637 17-208 limits assumed, stated change not applied) above, with F160V counted along it

B1: DART-Z (bispecific antibody)
chain 1: QSALTQPPSASGSPGQSVTISCTGTSSDVGGYNYVSWYQHHPGKAPKLIISEVNNRPSGVPDRFSGSKSGNTASLTVSGLQAEDEAEYYCSSYTDIHNFVFGGGTKLTVLGGGSGGGGEEVQLVQSGAEVKKPGESLKVSCKASGYTFTSYYMHWVRQAPGQGLEWMGIINPSGGSTSYAQKFQGRVTMTRDTSTSTVYMELSSLRSEDTAVYYCARGSAYYYDFADYWGQGTLVTVSSASTKGEVAACEKEVAALEKEVAALEKEVAALEK
chain 2: QPVLTQPSSVSVAPGQTATISCGGHNIGSKNVHWYQQRPGQSPVLVIYQDNKRPSGIPERFSGSNSGNTATLTISGTQAMDEADYYCQVWDNYSVLFGGGTKLTVLGGGSGGGGQVQLQESGPGLVKPSQTLSLSCTVSGGSSSSGAHYWSWIRQYPGKGLEWIGYIHYSGNTYYNPSLKSRITISQHTSENQFSLKLNSVTVADTAVYYCARGTRLRTLRNAFDIWGQGTLVTVSSASTKGKVAACKEKVAALKEKVAALKEKVAALKE
notes: also called 4-LS21
Kd [1]: 15.2 nM | Kd [2]: 15.7 nM

B2: DART-H (bispecific antibody)
chain 1: DIVMTQSPDSLAVSPGERATIHCKSSQTLLYSSNNRHSIAWYQQRPGQPPKLLLYWASMRLSGVPDRFSGSGSGTDFTLTINNLQAEDVAIYYCHQYSSHPPTFGHGTRVEIKGGGSGGGGEVQLVESGGGLVKPGGSLRLSCAASGFTFSNYGMSWVRQAPGKGLEWVATISGGGSYTFYPDSVKGRFTISRDNAKNSLYLQMNSLRTEDTALYYCVRQSARAPEPYWGQGTLVTVSSASTKGEVAACEKEVAALEKEVAALEKEVAALEKGGGDKTHTCPPCPAPEAAGGPSVFLFPPKPKDTLMISRTPEVTCVVVDVSHEDPEVKFNWYVDGVEVHNAKTKPREEQYNSTYRVVSVLTVLHQDWLNGKEYKCKVSNKALPAPIEKTISKAKGQPREPQVYTLPPSREEMTKNQVSLWCLVKGFYPSDIAVEWESNGQPENNYKTTPPVLDSDGSFFLYSKLTVDKSRWQQGNVFSCSVMHEALHNHYTQKSLSLSPGK
chain 2: DIQMTQSPSFLSASVGDRVTITCRASQNVGTHVAWYQQKPGKAPKSLLYSASYRYSGVPSRFSGSGSGTDFTLTISSLQSEDIATYYCQQYKSYPLTFGQGTKLEIKGGGSGGGGQVQLVQSGGGVFKPGGSLRLSCEASGFTFTEYYMTWVRQAPGKGLEWLAYISKNGEYSKYSPSSNGRFTISRDNAKNSVFLQLDRLSADDTAVYYCARADGLTYFSELLQYIFDLWGQGARVTVSSASTKGKVAACKEKVAALKEKVAALKEKVAALKE
chain 3: not shown
notes: Three-chain diabody; hCD16-M1 x 7B2
Kd [1]: 0.04 nM | Kd [2]: 0.1 nM | Kd [3]: 0.4 nM

B3: DART-G (bispecific antibody)
chain 1: QSALTQPPSASGSPGQSVTISCTGTSSDVGGYNYVSWYQHHPGKAPKLIISEVNNRPSGVPDRFSGSKSGNTASLTVSGLQAEDEAEYYCSSYTDIHNFVFGGGTKLTVLGGGSGGGGQVQLVQSGAEVKKPGASVKVSCKASGYTFTSSAMHWVRQAPGQGLEWMGYINHYNDGIKYNERFKGRVTITADKSTSTAYMELSSLRSEDTAVYYCATGYRYASWFASWGQGTLVTVSSASTKGEVAACEKEVAALEKEVAALEKEVAALEKGGGDKTHTCPPCPAPEAAGGPSVFLFPPKPKDTLMISRTPEVTCVVVDVSHEDPEVKFNWYVDGVEVHNAKTKPREEQYNSTYRVVSVLTVLHQDWLNGKEYKCKVSNKALPAPIEKTISKAKGQPREPQVYTLPPSREEMTKNQVSLWCLVKGFYPSDIAVEWESNGQPENNYKTTPPVLDSDGSFFLYSKLTVDKSRWQQGNVFSCSVMHEALHNHYTQKSLSLSPGK
chain 2: EIVLTQSPATLSVSPGERATLSCRASQNIGTSIHWYQQKPDQSPKLLIKSVSESISGVPSRFSGSGSGTDFTLTINSLEAEDFATYYCQQSNSWPLTFGQGTKLEIKGGGSGGGGQVQLQESGPGLVKPSQTLSLSCTVSGGSSSSGAHYWSWIRQYPGKGLEWIGYIHYSGNTYYNPSLKSRITISQHTSENQFSLKLNSVTVADTAVYYCARGTRLRTLRNAFDIWGQGTLVTVSSASTKGKVAACKEKVAALKEKVAALKEKVAALKE
chain 3: not shown
notes: Three-chain diabody; hCD16-M2 (VH1) x A32; also called DART-G (hCD16-M2)
Kd [1]: 1.9 nM | Kd [2]: 0.8 nM | Kd [3]: 2.6 nM | Kd [4]: 2.6 nM | Kd [5]: 2.2 nM | EC50 (read off the curve) [6]: ~0.03 µg/mL | EC50 (read off the curve) [7]: ~8 ng/mL | EC50 (read off the curve) [8]: ~0.1 µg/mL | EC50 (read off the curve) [9]: ~0.2 µg/mL

B4: DART-4 (bispecific antibody)
chain 1: DIVMTQSPDSLAVSPGERATIHCKSSQTLLYSSNNRHSIAWYQQRPGQPPKLLLYWASMRLSGVPDRFSGSGSGTDFTLTINNLQAEDVAIYYCHQYSSHPPTFGHGTRVEIKGGGSGGGGQVTLRESGPALVKPTQTLTLTCTFSGFSLSTSGMGVGWIRQPPGKALEWLAHIWWDDDKRYNPALKSRLTISKDTSKNQVVLTMTNMDPVDTATYYCAQINPAWFAYWGQGTLVTVSSASTKGEVAACEKEVAALEKEVAALEKEVAALEKGGGDKTHTCPPCPAPEAAGGPSVFLFPPKPKDTLMISRTPEVTCVVVDVSHEDPEVKFNWYVDGVEVHNAKTKPREEQYNSTYRVVSVLTVLHQDWLNGKEYKCKVSNKALPAPIEKTISKAKGQPREPQVYTLPPSREEMTKNQVSLWCLVKGFYPSDIAVEWESNGQPENNYKTTPPVLDSDGSFFLYSKLTVDKSRWQQGNVFSCSVMHEALHNHYTQKSLSLSPGK
chain 2: DIVMTQSPDSLAVSLGERATINCKASQSVDFDGDSFMNWYQQKPGQPPKLLIYTTSNLESGVPDRFSGSGSGTDFTLTISSLQAEDVAVYYCQQSNEDPYTFGQGTKLEIKGGGSGGGGQVQLVQSGGGVFKPGGSLRLSCEASGFTFTEYYMTWVRQAPGKGLEWLAYISKNGEYSKYSPSSNGRFTISRDNAKNSVFLQLDRLSADDTAVYYCARADGLTYFSELLQYIFDLWGQGARVTVSSASTKGKVAACKEKVAALKEKVAALKEKVAALKE
chain 3: not shown
Kd [1]: 76.8 nM | Kd [2]: 23.3 nM | kon [2]: 290000 M⁻¹ s⁻¹ | Kd [3]: 7.8 nM

B5: DART-F (bispecific antibody)
chain 1: QSALTQPPSASGSPGQSVTISCTGTSSDVGGYNYVSWYQHHPGKAPKLIISEVNNRPSGVPDRFSGSKSGNTASLTVSGLQAEDEAEYYCSSYTDIHNFVFGGGTKLTVLGGGSGGGGEVQLVESGGGLVKPGGSLRLSCAASGFTFSNYGMSWVRQAPGKGLEWVATISGGGSYTFYPDSVKGRFTISRDNAKNSLYLQMNSLRTEDTALYYCVRQSARAPEPYWGQGTLVTVSSASTKGEVAACEKEVAALEKEVAALEKEVAALEKGGGDKTHTCPPCPAPEAAGGPSVFLFPPKPKDTLMISRTPEVTCVVVDVSHEDPEVKFNWYVDGVEVHNAKTKPREEQYNSTYRVVSVLTVLHQDWLNGKEYKCKVSNKALPAPIEKTISKAKGQPREPQVYTLPPSREEMTKNQVSLWCLVKGFYPSDIAVEWESNGQPENNYKTTPPVLDSDGSFFLYSKLTVDKSRWQQGNVFSCSVMHEALHNHYTQKSLSLSPGK
chain 2: DIQMTQSPSFLSASVGDRVTITCRASQNVGTHVAWYQQKPGKAPKSLLYSASYRYSGVPSRFSGSGSGTDFTLTISSLQSEDIATYYCQQYKSYPLTFGQGTKLEIKGGGSGGGGQVQLQESGPGLVKPSQTLSLSCTVSGGSSSSGAHYWSWIRQYPGKGLEWIGYIHYSGNTYYNPSLKSRITISQHTSENQFSLKLNSVTVADTAVYYCARGTRLRTLRNAFDIWGQGTLVTVSSASTKGKVAACKEKVAALKEKVAALKEKVAALKE
chain 3: not shown
notes: Three-chain diabody; hCD16-M1 x A32; also called DART-F (hCD16-M1)
Kd [1]: 0.1 nM | Kd [2]: 0.1 nM | Kd [3]: 0.4 nM | Kd [4]: 0.2 nM | Kd [5]: 0.3 nM | EC50 (read off the curve) [6]: ~0.003 µg/mL | EC50 (read off the curve) [7]: ~0.2 ng/mL
